First the molecules themselves.
B1: LINE1-mini (parent)
chain: GGCAGAGCUCAACACAGCGUGGCAAAGUGGCUGUGGCUAGACUGCC

In the data set the parent is B1. As to the kind of experiment: self-cleavage, relative activity (ratio to wild type); higher = more cleavage; in vitro, sequencing; the parent is a self-cleaving ribozyme.
Consider G17U U32G, for which the self-cleavage was determined as 0.09.

In the case of G17U U32A, the self-cleavage came to 0.08.

Take G17U U32C: the self-cleavage was determined as 0.18.

Consider C18U C46U, for which the self-cleavage turned out to be 1.43.

For C18U C46A, the self-cleavage stood at 0.46.

Regarding C18U C46G, the self-cleavage stood at 1.24.

As for C18U C45U, the self-cleavage is 1.45.

Turning to C18U C45G, the self-cleavage came out at 0.27.

For C18U C45A, the self-cleavage is 0.79.

Consider C18A U34C, for which the self-cleavage was 0.06.

As for C18A U34A, the self-cleavage turned out to be 0.03.

On to C18A U34G, for which the self-cleavage worked out at 0.04.

For the variant C18U G44C, the self-cleavage turned out to be 0.28.

With C18U G44U, the self-cleavage was 0.07.

Regarding C18U G44A, the self-cleavage was 0.22.

In the case of C18A G21A, the self-cleavage was 1.86.

As for C18A G21U, the self-cleavage turned out to be 0.77.

C18A G21C: the self-cleavage amounted to 0.96.

On to C18G G33C, for which the self-cleavage was 0.03.

In the case of C18G G33A, the self-cleavage was 0.04.

Turning to C18G G33U, the self-cleavage came to 0.07.

Turning to G19A G29U, the self-cleavage stood at 0.94.

Take G19A G29C: the self-cleavage amounted to 1.31.

In the case of G19A G29A, the self-cleavage is 1.14.

Regarding C18G G40U, the self-cleavage came to 0.06.

Turning to C18G G40A, the self-cleavage was found to be 0.05.

On to C18G G40C, for which the self-cleavage was found to be 0.05.

Regarding C18G U32C, the self-cleavage amounted to 0.15.

On to C18G U32G, for which the self-cleavage was determined as 0.06.

Turning to C18G U32A, the self-cleavage was 0.05.

For the variant C18A G33C, the self-cleavage stood at 0.04.

C18A G33U: the self-cleavage was 0.04.

Take C18A G33A: the self-cleavage came to 0.03.

On to C18G C37A, for which the self-cleavage turned out to be 0.07.

Turning to C18G C37U, the self-cleavage stood at 0.09.

As for C18G C37G, the self-cleavage was determined as 0.06.

Turning to C18G C46U, the self-cleavage was 0.4.

Regarding C18G C46G, the self-cleavage was 0.25.

With C18G C46A, the self-cleavage is 0.43.

In the case of G19A G21C, the self-cleavage amounted to 0.39.

As to G19A G21A, the self-cleavage came out at 2.83.

On to G19A G21U, for which the self-cleavage came to 0.72.

C18G G19U: the self-cleavage turned out to be 0.56.

On to C18G G19A, for which the self-cleavage came to 0.31.

Turning to C18G G19C, the self-cleavage was 0.83.

Consider C18A C23G, for which the self-cleavage worked out at 0.76.

On to C18A C23U, for which the self-cleavage stood at 1.29.

Regarding C18A C23A, the self-cleavage came to 1.02.

Take C18G A26U: the self-cleavage came out at 0.42.

As to C18G A26C, the self-cleavage worked out at 0.86.

For the variant C18G A26G, the self-cleavage is 0.22.

For the variant G19A C31U, the self-cleavage was 0.6.

For the variant G19A C31G, the self-cleavage was 0.17.

Take G19A C31A: the self-cleavage came out at 0.46.

For G19A C23G, the self-cleavage came out at 0.41.

On to G19A C23U, for which the self-cleavage was 1.06.

On to G19A C23A, for which the self-cleavage is 0.96.

With G19A A41G, the self-cleavage turned out to be 0.29.

Take G19A A41C: the self-cleavage is 0.08.

For the variant G19A A41U, the self-cleavage is 0.77.

On to C18G A39U, for which the self-cleavage worked out at 0.47.

On to C18G A39C, for which the self-cleavage is 0.06.

As to C18G A39G, the self-cleavage came out at 0.07.

Take C18G C23A: the self-cleavage amounted to 0.64.

As to C18G C23G, the self-cleavage amounted to 0.66.

As to C18G C23U, the self-cleavage is 0.89.

Consider C18G G35A, for which the self-cleavage amounted to 0.07.

With C18G G35U, the self-cleavage was found to be 0.08.

For the variant C18U U34A, the self-cleavage is 0.07.

Consider C18U U34C, for which the self-cleavage was 0.07.

As for C18U U34G, the self-cleavage was determined as 0.03.

C18G U20A: the self-cleavage is 0.41.

In the case of C18G U20C, the self-cleavage is 0.4.

On to C18G U20G, for which the self-cleavage was 0.41.

Regarding C18U G19C, the self-cleavage amounted to 0.56.

Regarding C18U G19U, the self-cleavage is 1.14.

With C18U G19A, the self-cleavage stood at 1.13.

Take C18A C31U: the self-cleavage came to 0.04.

For C18A C31G, the self-cleavage is 0.04.

For the variant C18A C31A, the self-cleavage is 0.16.

Consider C18G G21C, for which the self-cleavage amounted to 0.62.

Consider C18G G21A, for which the self-cleavage was determined as 0.77.

For C18G G21U, the self-cleavage came to 1.38.

With C18A G36A, the self-cleavage turned out to be 0.13.

With C18A G36U, the self-cleavage was 0.07.

Turning to C18A G36C, the self-cleavage amounted to 0.03.

In the case of G19A G30C, the self-cleavage is 1.5.

Regarding G19A G30A, the self-cleavage was determined as 1.99.

On to G19A G30U, for which the self-cleavage was 2.03.

Turning to G19A A39C, the self-cleavage is 0.75.

Take G19A A39G: the self-cleavage was found to be 0.1.

For G19A A39U, the self-cleavage was found to be 1.35.

Consider G19A C45U, for which the self-cleavage came out at 1.74.

Take G19A C45A: the self-cleavage is 0.79.

As to G19A C45G, the self-cleavage came to 0.38.

C18A U43A: the self-cleavage is 0.08.

For C18A U43C, the self-cleavage stood at 0.05.

Consider C18A U43G, for which the self-cleavage is 0.26.

As to C18U G30C, the self-cleavage turned out to be 1.82.

Take C18U G30U: the self-cleavage worked out at 0.4.

Regarding C18U G30A, the self-cleavage was 1.78.

As to G19A G44U, the self-cleavage turned out to be 0.51.

Regarding G19A G44A, the self-cleavage was 0.75.

On to G19A G44C, for which the self-cleavage is 0.48.

For the variant C18G U34A, the self-cleavage amounted to 0.05.

In the case of C18G U34G, the self-cleavage is 0.02.

Take C18G U34C: the self-cleavage stood at 0.03.

For C18A C42U, the self-cleavage is 0.13.

For C18A C42G, the self-cleavage is 0.04.

With C18A C42A, the self-cleavage amounted to 0.12.

With C18U C23A, the self-cleavage is 1.27.

For the variant C18U C23G, the self-cleavage came out at 1.56.

As to C18U C23U, the self-cleavage turned out to be 1.07.

On to C18G A41G, for which the self-cleavage came to 0.08.

As for C18G A41U, the self-cleavage worked out at 0.32.

Regarding C18G A41C, the self-cleavage amounted to 0.03.

As to C18U G27C, the self-cleavage turned out to be 0.55.

For the variant C18U G27A, the self-cleavage came to 0.84.

In the case of C18U G27U, the self-cleavage stood at 1.63.

Regarding C18A C37G, the self-cleavage was found to be 0.07.

Consider C18A C37A, for which the self-cleavage came to 0.05.

Take C18A C37U: the self-cleavage came to 0.07.

Consider C18G G22U, for which the self-cleavage was found to be 0.87.

As for C18G G22C, the self-cleavage is 0.12.

Take C18G G22A: the self-cleavage stood at 0.82.

With C18A U38G, the self-cleavage stood at 0.02.

C18A U38A: the self-cleavage stood at 0.49.

C18A U38C: the self-cleavage turned out to be 0.09.

With C18A G44C, the self-cleavage was 0.22.

Take C18A G44A: the self-cleavage is 0.2.

C18A G44U: the self-cleavage was determined as 0.08.

C18G C42G: the self-cleavage turned out to be 0.04.

With C18G C42A, the self-cleavage came to 0.07.

C18G C42U: the self-cleavage was determined as 0.05.

As to C18G U28G, the self-cleavage is 0.22.

For the variant C18G U28C, the self-cleavage was determined as 0.36.

For the variant C18G U28A, the self-cleavage was 0.39.

For the variant C18A U32A, the self-cleavage was found to be 0.05.

Regarding C18A U32C, the self-cleavage came out at 0.16.

For the variant C18A U32G, the self-cleavage came out at 0.04.

For the variant C18G A24U, the self-cleavage was found to be 0.76.

On to C18G A24G, for which the self-cleavage was 0.44.

For the variant C18G A24C, the self-cleavage is 0.17.

For the variant G17U U43A, the self-cleavage was 0.09.

On to G17U U43C, for which the self-cleavage amounted to 0.06.

Take G17U U43G: the self-cleavage turned out to be 0.06.

As for C18U U28A, the self-cleavage stood at 0.86.

For C18U U28C, the self-cleavage amounted to 1.2.

For C18U U28G, the self-cleavage amounted to 0.43.

For the variant C18G U43A, the self-cleavage stood at 0.07.

Regarding C18G U43C, the self-cleavage is 0.06.

For the variant C18G U43G, the self-cleavage came to 0.13.

Consider C18U U43A, for which the self-cleavage was 0.06.

With C18U U43C, the self-cleavage came out at 0.09.

Consider C18U U43G, for which the self-cleavage was 0.

As for C18G G36A, the self-cleavage was 0.1.

On to C18G G36U, for which the self-cleavage came out at 0.07.

With C18G G36C, the self-cleavage worked out at 0.08.

As for C18A U20G, the self-cleavage stood at 0.61.

Take C18A U20A: the self-cleavage came out at 0.29.

Regarding C18A U20C, the self-cleavage amounted to 0.31.

With C18A A39G, the self-cleavage turned out to be 0.05.

C18A A39U: the self-cleavage worked out at 0.76.

In the case of C18A A39C, the self-cleavage came to 0.06.

In the case of G19A C42U, the self-cleavage is 0.43.

Take G19A C42A: the self-cleavage is 0.34.

For the variant G19A C42G, the self-cleavage turned out to be 0.04.

The record behind these values is the RNAGym collection of RNA variant scans (doi:10.7554/elife.90254).
